Measurements taken from the supplement of paper PMC9112550, “Optimization of the antimicrobial peptide Bac7 by deep mutational scanning” (BMC Biology, 2022).

System: Escherichia coli TOP10
Assay: shrunken log2 fold change of peptide-encoding DNA abundance (4.5 h post-induction vs induction); higher = less antimicrobial activity (less host growth inhibition)
Conditions: time post-induction: 4.5 h; library: site-saturation at positions 5, 18, 19, 20
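Note: peptides expressed intracellularly from a pBAD plasmid library in pooled LB shake-flask culture, induced with 0.3% L-arabinose, DNA abundance read by NGS, three biological replicates, DESeq2 with apeglm shrinkage.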

Sequence | shrunken log2 fold change
RRIRQRPPRLPRPRPRPSVRPRP | -0.309
RRIRKRPPRLPRPRPRPEVHPRP | 0.013
RRIRVRPPRLPRPRPRPTTAPRP | 0.181
RRIRKRPPRLPRPRPRPYRQPRP | -0.122
RRIRLRPPRLPRPRPRPAYWPRP | 0.154
RRIRIRPPRLPRPRPRPLMDPRP | -0.396
RRIRWRPPRLPRPRPRPSSMPRP | -0.411
RRIRCRPPRLPRPRPRPSMDPRP | -0.182
RRIRKRPPRLPRPRPRPASTPRP | 0.53
RRIRGRPPRLPRPRPRPPWDPRP | 0.832
RRIRMRPPRLPRPRPRPLKMPRP | 0.146
RRIRMRPPRLPRPRPRPKWPPRP | 1.18
RRIRSRPPRLPRPRPRPSIIPRP | -0.253
RRIRHRPPRLPRPRPRPHYLPRP | 0.0305
RRIRVRPPRLPRPRPRPRHAPRP | 0.229
RRIRSRPPRLPRPRPRPLEFPRP | -0.195
RRIRMRPPRLPRPRPRPWLWPRP | 0.0882
RRIRHRPPRLPRPRPRPQGVPRP | -0.00445
RRIRARPPRLPRPRPRPEMRPRP | 1.19
RRIRLRPPRLPRPRPRPYMSPRP | -0.0167
RRIRWRPPRLPRPRPRPGIRPRP | 0.29
RRIRGRPPRLPRPRPRPTFAPRP | 0.997
RRIRLRPPRLPRPRPRPSPCPRP | -0.252
RRIRIRPPRLPRPRPRPSGPPRP | -0.21
RRIRMRPPRLPRPRPRPTHAPRP | 0.995

Sequence | shrunken log2 fold change
RRIRTRPPRLPRPRPRPRGAPRP | 0.382
RRIRARPPRLPRPRPRPWRWPRP | 0.451
RRIRKRPPRLPRPRPRPAMSPRP | -0.146
RRIRERPPRLPRPRPRPNDVPRP | 0.0254
RRIRYRPPRLPRPRPRPETQPRP | -0.00798
RRIRIRPPRLPRPRPRPDPVPRP | -0.0546
RRIRPRPPRLPRPRPRPCVFPRP | -0.164
RRIRHRPPRLPRPRPRPIPRPRP | -0.0447
RRIRCRPPRLPRPRPRPVFAPRP | -0.224
RRIRNRPPRLPRPRPRPQAPPRP | 0.31
RRIRARPPRLPRPRPRPGEHPRP | 0.351
RRIRHRPPRLPRPRPRPRRTPRP | 0.0506
RRIRFRPPRLPRPRPRPMRPPRP | 0.654
RRIRLRPPRLPRPRPRPRYHPRP | -0.274
RRIRGRPPRLPRPRPRPCQEPRP | 0.0738
RRIRLRPPRLPRPRPRPCVEPRP | -0.124
RRIRGRPPRLPRPRPRPGATPRP | 1.39
RRIRKRPPRLPRPRPRPEYSPRP | 0.0499
RRIRTRPPRLPRPRPRPVRHPRP | -0.041
RRIRKRPPRLPRPRPRPSETPRP | 0.0356
RRIRHRPPRLPRPRPRPIQQPRP | -0.15
RRIRDRPPRLPRPRPRPKNPPRP | -0.128
RRIRCRPPRLPRPRPRPDMIPRP | -0.69
RRIRGRPPRLPRPRPRPGWNPRP | 0.486
RRIRDRPPRLPRPRPRPDNLPRP | 0.0916

Sequence | shrunken log2 fold change
RRIRTRPPRLPRPRPRPSNQPRP | -0.14
RRIRMRPPRLPRPRPRPFEMPRP | 0.0316
RRIRARPPRLPRPRPRPRFWPRP | 0.691
RRIRLRPPRLPRPRPRPYYSPRP | -0.309
RRIRLRPPRLPRPRPRPHDVPRP | 0.0205
RRIRDRPPRLPRPRPRPDTFPRP | -0.0268
RRIRSRPPRLPRPRPRPVREPRP | 0.723
RRIRHRPPRLPRPRPRPVWLPRP | -0.0368
RRIRHRPPRLPRPRPRPITSPRP | -0.401
RRIRHRPPRLPRPRPRPHCQPRP | -0.0776
RRIRIRPPRLPRPRPRPGDTPRP | -0.372
RRIRQRPPRLPRPRPRPKSEPRP | -0.0211
RRIRERPPRLPRPRPRPLTQPRP | -0.281
RRIRMRPPRLPRPRPRPYEEPRP | -0.228
RRIRHRPPRLPRPRPRPSDGPRP | -0.266
RRIRTRPPRLPRPRPRPGGRPRP | 0.384
RRIRPRPPRLPRPRPRPYPVPRP | -0.247
RRIRIRPPRLPRPRPRPKDIPRP | -1.25
RRIRTRPPRLPRPRPRPENTPRP | -0.0831
RRIRARPPRLPRPRPRPPNPPRP | 0.662
RRIRTRPPRLPRPRPRPWGKPRP | 0.201
RRIRSRPPRLPRPRPRPHRVPRP | 0.0316
RRIRDRPPRLPRPRPRPKGWPRP | 0.589
RRIRYRPPRLPRPRPRPGSSPRP | -0.853
RRIRKRPPRLPRPRPRPLQLPRP | 0.166

Sequence | shrunken log2 fold change
RRIRERPPRLPRPRPRPHKKPRP | 0.0621
RRIRFRPPRLPRPRPRPNRFPRP | -0.174
RRIRDRPPRLPRPRPRPCDAPRP | -0.0239
RRIRNRPPRLPRPRPRPFAKPRP | 0.637
RRIRCRPPRLPRPRPRPFEQPRP | -0.669
RRIRQRPPRLPRPRPRPAVIPRP | 0.135
RRIRGRPPRLPRPRPRPQMTPRP | 2.33
RRIRRRPPRLPRPRPRPRLTPRP | 0.439
RRIRYRPPRLPRPRPRPAHSPRP | -0.0299
RRIRRRPPRLPRPRPRPGKGPRP | 0.609
RRIRWRPPRLPRPRPRPVCLPRP | 0.311
RRIRGRPPRLPRPRPRPWFIPRP | -0.361
RRIRARPPRLPRPRPRPPEWPRP | 0.734
RRIRCRPPRLPRPRPRPNTHPRP | -0.499
RRIRRRPPRLPRPRPRPYHLPRP | -0.307
RRIRLRPPRLPRPRPRPWHEPRP | 0.0149
RRIRLRPPRLPRPRPRPRDAPRP | 0.469
RRIRPRPPRLPRPRPRPQNQPRP | -0.407
RRIRRRPPRLPRPRPRPPDLPRP | 0.66
RRIRWRPPRLPRPRPRPRVPPRP | 0.444
RRIRMRPPRLPRPRPRPTYWPRP | 0.169
RRIRIRPPRLPRPRPRPEFYPRP | -0.333
RRIRFRPPRLPRPRPRPLVAPRP | -0.00793
RRIRQRPPRLPRPRPRPKWDPRP | -0.0672
RRIRTRPPRLPRPRPRPKLRPRP | -0.0516

Sequence | shrunken log2 fold change
RRIRSRPPRLPRPRPRPIVLPRP | -0.639
RRIRLRPPRLPRPRPRPQRLPRP | 0.239
RRIRKRPPRLPRPRPRPFWFPRP | 0.247
RRIRSRPPRLPRPRPRPTEHPRP | -0.0545
RRIRARPPRLPRPRPRPKCFPRP | -0.0172
RRIRNRPPRLPRPRPRPPVLPRP | 0.124
RRIRQRPPRLPRPRPRPDIRPRP | -0.154
RRIRCRPPRLPRPRPRPHGRPRP | 0.0979
RRIRKRPPRLPRPRPRPPYYPRP | -0.291
RRIRRRPPRLPRPRPRPTAKPRP | 0.371
RRIRTRPPRLPRPRPRPSNCPRP | -0.414
RRIRWRPPRLPRPRPRPNMDPRP | 0.0467
RRIRQRPPRLPRPRPRPITFPRP | -0.11
RRIRYRPPRLPRPRPRPKTSPRP | -0.595
RRIRHRPPRLPRPRPRPHNAPRP | -0.809
RRIRKRPPRLPRPRPRPKALPRP | 1.8
RRIRKRPPRLPRPRPRPFMHPRP | 0.0291
RRIRARPPRLPRPRPRPTRVPRP | 0.343
RRIRVRPPRLPRPRPRPCHMPRP | -0.19
RRIRRRPPRLPRPRPRPWLEPRP | 0.0128
RRIRCRPPRLPRPRPRPLAYPRP | -0.616
RRIRARPPRLPRPRPRPWEYPRP | -0.00494
RRIRTRPPRLPRPRPRPMCFPRP | 0.0222
RRIRVRPPRLPRPRPRPMHLPRP | -0.167
RRIRDRPPRLPRPRPRPLSNPRP | -0.247

Sequence | shrunken log2 fold change
RRIRTRPPRLPRPRPRPYPRPRP | -0.0911
RRIRTRPPRLPRPRPRPTDIPRP | 0.0221
RRIRLRPPRLPRPRPRPYFIPRP | -1.11
RRIRVRPPRLPRPRPRPPIPPRP | 0.242
RRIRWRPPRLPRPRPRPVLEPRP | 0.227
RRIRYRPPRLPRPRPRPWFVPRP | -0.271
RRIRMRPPRLPRPRPRPNCSPRP | 0.135
RRIRYRPPRLPRPRPRPGMWPRP | 0.234
RRIRSRPPRLPRPRPRPHIHPRP | 0.966
RRIRFRPPRLPRPRPRPHKWPRP | -0.073
RRIRRRPPRLPRPRPRPVIRPRP | 0.1
RRIRIRPPRLPRPRPRPAYEPRP | -0.277
RRIRRRPPRLPRPRPRPFKRPRP | -2.89e-05
RRIRGRPPRLPRPRPRPFKMPRP | 0.143
RRIRHRPPRLPRPRPRPFQFPRP | 0.0952
RRIRARPPRLPRPRPRPADKPRP | 0.197
RRIRVRPPRLPRPRPRPDNVPRP | 0.171
RRIRDRPPRLPRPRPRPWPHPRP | -0.00987
RRIRRRPPRLPRPRPRPFAHPRP | -0.00279
RRIRTRPPRLPRPRPRPFSDPRP | -0.399
RRIRIRPPRLPRPRPRPHEVPRP | -0.0624
RRIRSRPPRLPRPRPRPHVRPRP | 0.128
RRIRQRPPRLPRPRPRPRRHPRP | -0.0734
RRIRCRPPRLPRPRPRPLRNPRP | 0.272
RRIRLRPPRLPRPRPRPNWPPRP | 0.379
